Results taken from the DeepSol protein solubility set.

test: soluble on expression in E. coli; label from the status in PepcDB or PDB records

**Q.** With “MTQAATILRTGRKFDQVLRGAREVFMSDGFEGANVDDIARAAGVSKATLYSYFPDKRLLFVEVAQTECQLMAERILSMIDEDRPVREVLTITATQLVAFLISDFAQQVFRICLAERERFPELARAFYAAGPENGQRQICEYLEKAVTKGELVIADIPMAAEQFSELCKTRLWTRAVFGIQTRFTQAEIDEVALAAVDTFLARYGA” as the sequence, how does the “soluble on expression in E. coli” value read?
**A.** Its value is “not soluble”.

**Q.** For “MGWHFQQSVTMPSEWRTLALESDDSYNDFTVIMRRKLQENQVNVVNLEQNIPILRINKQITSDQVASIFKHGREAEKLLMLEVEATFRLANGESYPINAKVNRTFFDNARAALAKSEEREVIWNDMREQVARQLIVKIIALQNQIKRKLEHHHHHH”, which “soluble on expression in E. coli” value is on record?
**A.** The value was “soluble”.

**Q.** With “MPVEITVKELLEAGVHFGHERKRWNPKFARYIYAERNGIHIIDLQKTMEELERTFRFIEDLAMRGGTILFVGTKKQAQDIVRMEAERAGMPYVNQRWLGGMLTNFKTISQRVHRLEELEALFASPEIEERPKKEQVRLKHELERLQKYLSGFRLLKRLPDAIFVVDPTKEAIAVREARKLFIPVIALADTDSDPDLVDYIIPGNDDAIRSIQLILSRAVDLIIQARGGVVEPSPSYALVQEAEATETPEGESEVEA” as the sequence, how does the “soluble on expression in E. coli” value read?
**A.** The value was “soluble”.

**Q.** With “MGSDKIHHHHHHMTLQQLRQVLTIAESNSMNEAAKKLFVSQPNLSATVREVEEELGITVFMRNNRGITVTAEGEEFLGYAKQVVEQYHLLENRYLNVESKKKFSVSMQHYSFAVKAFVQLAKEVGMDEYEFAVHETKTKEVIDNVKNLKSEIGVLYLSDFNEKVLRKLFKECDIEFKELFTCNTYVYLWKKHPLAGQKEITLDDLQEYPCLTFEQGVNNSFYYAEEMMSTYEYKRVIKADDRATMLNLMVGLNGFTLCSGIISEDLNGDDYAAIPLKESEKMHIGYIKHKGTKLSKLGEIYIDALKNYENKVL” as the sequence, how does the “soluble on expression in E. coli” value read?
**A.** The value was “not soluble”.

**Q.** With “MKTAIIQLPGLNRDRDMVAALHHITGVEPLKIWQTESTIPDVDVIVIPGGFSYGDYLRCGAIGARTPVLQAVREKAQKGVTVIGICNGFQILLEAGLLPGTLMRNTSLKFVCREIKLEVVNVNTKFSRYYSKGQIICCPVAHHDGNYFVDSETLKQMEENEQIIFRYAENTNPNGSVNDIAGIINKAGNILGMMPHPENFIEPAHGGTDGRLFFQSALELAKG” as the sequence, how does the “soluble on expression in E. coli” value read?
**A.** Its value is “not soluble”.

**Q.** Which “soluble on expression in E. coli” value does the source give for “MLFYLISAIIFTTVAFAAPTPAPTLTVAEEMEAIFQNLTEEAQNDYFQILFDHTLTLAELDQKWDEWAEKHGIADKWAVYTSKWQARKEKFNETTVSVIERLPSTYKMLSEITANRNQTLSQVETALEELKEKFNLEVQLILILSKTLILNEEIVLGGGPIEVGNEVTGNSFRRMRDFKNKNRDVKSLLIPGPL” here?
**A.** The value was “not soluble”.

**Q.** Which “soluble on expression in E. coli” value does the source give for “MAKSRLLLSELLDQLSFALCIVRNDYVIVKVNEYFESRVIFDGETMQGKNILELFPESADYLKRKIDTALVIESSSFSSWEQKPHLLPFKSSRPVSGEEEQMYQNLEVIPIHSEDGTIEHVCLCVYDVTIQASQQQELKRVSQKLEEEHQSQKVLIKKLEDAQGQLIQSEKMASIGQLSAGIAHEINNPVGFITSNLQTLSDYFNSLEKVLKSITQTIGQSKDTALNEACQKILKQGQVDFILEDTAELITESLEGSSRVMSIVKNLKEFSHVDRSEWSYANLENCIESTLKIINNEIKYNITLEKHYAANVPDVFCQPMQINQVLLNILVNASHAIKGEGTITITLQSAGDDFVEIHIRDTGCGIPEEIRERIFEPFFTTKPVGSGTGLGLSVSYGIINKHNGTISVTSEVGKGSEFTIRLPVNPSAEAVDNTDAKAM” here?
**A.** Its value is “not soluble”.

**Q.** For “TRPIFAIEQLSPYQNVWTIKARVSYKGEIKTWHNQRGDGKLFNVNFLDTSGEIRATAFNDFATKFNEILQEGKVYYVSKAKLQPAKPQFTNLTHPYELNLDRDTVIEECFDESN”, which “soluble on expression in E. coli” value is on record?
**A.** The value was “soluble”.

**Q.** For “MNEIYDREQMIKLLDLAKNTEMELPINLAIGLGLRISEVLGLTWDNIDFEENTITVNKITSRINGSVILKEPKTESSVRKISSPKELMSLLKEYKIKQNKNLLKSSIRNNNNLLFFNKKCEPIAEDVMSKKFKRFLEKNELPHIRFHDLRHSHVTLLINSKVPIKVISERVGHSNISTTLSVYSHVLKEMDKEASDKISESLFNANLEHHHHHH”, which “soluble on expression in E. coli” value is on record?
**A.** Its value is “not soluble”.

**Q.** Which “soluble on expression in E. coli” value does the source give for “MNKKTIQDLIPKAMQAIEGVGIVGKDKKFEKVHEGYINALGPTIIQSGLLPTLIFYNKDKRELWLKALYYMEIISNDIDPTAIIQLIIKEGDSESRQEKTLKELEPKAKEWERKILEYAVALKLALRTFVAKESETGNTEQQKGGAQ” here?
**A.** Its value is “not soluble”.

**Q.** For “MAHHHHHHMKAGKSGHRIYVGNIPGSMSKQEIIKAFEEFGKITEIDIKYNRNTNGTNYAFIEYESYKSAEKTIENKNGQKLKGYMLKVEYSIDKKNKEGGDLIALGGREAVSKGLLTNVRLPKNRSHYRVVVKNFPRKKIKLDGIKTFLMKAGKVIYTQLEDEITIAEYDCREGMLRAVNTLDRTMFNSTRKVYVRVLKDLPYDDSDADDSAQGCR”, which “soluble on expression in E. coli” value is on record?
**A.** Its value is “not soluble”.

**Q.** Which “soluble on expression in E. coli” value does the source give for “MSLGGPNADAQRANQRNVKKPNTQTKIRLPESVRTKKPVDMDVAPVRQSSRDEIRYAANELDTFIERELLAEGIAAEELASDEVFLRRIYLDVAGRIPTLQEAEQFLSSKSSDRREELIDQLLSSPDYVSHTYNWWADTLRLVDRPQPNLVADPYNGYIKESIAENKPYDKWVYEMLTADGKVWDNPAVGFQLRDDGMPLPYIDNTVRVFLGTQIGCAQCHDHPFDEWSQYQFYQLAAFTAGTSTRMRKGDPGYEKTNPANDLINEGKKRYEKGRVPGEFQRIARANTYIVSERPRRLRLPHDYAYRDAKPKDFVEPKVLWGEIPSSAAKSTPREQFAAWVTSPENPRFSQTVVNRLWKRLMGVGFVDPVDDFRDENPCVNEAAMDYLCKELVRRGFDLKELTRIVLYSQTYQRKAVDYDITDGDLYYFPGPTVRRMTAEQVWDSILTLAVDNPWPFQRPTAKEMKPVMDLDFSKVDFEEVQRRSAKFKETYFASTYKRNLNQHAYQRNVLCRASELPAPLPADHFLRQFGQGDREVINGSQDEATVPQILAMFNGPITHVMLEPGSALVDNVLEVNNVKNRIDAIFLSVLTRKPSTEDRILASRELSSQNQTGVGYGNIIWALLNTREFLFVQEGHHHHHH” here?
**A.** The value was “not soluble”.

**Q.** With “MGSDKIHHHHHHMKLKFLGGAEEVGRLGVKITDKDTSVIVDYGVIPEKPPQYPLPPEPVDAMFITHSHLDHIGAVPVYYHKGEPDLYATQMTLNTMKPLLRDALKVTNIEGYPAMFNEDDINSALANMRPARYFESIEVGNMVATPYPAGHIPGSTMWKFEDGISVTVTGDVNTIDTYLINGAKPIKTDVLIIESTYAGKNHESREDVRKRFRDSVKEVIDSGGKVIMPAFAVGRTQELIMTIADMGYDVAVDGMGNDISTIYLNTPGFLRSKKEFLRALSKVRIIKGRNMRENAIRSDIIISTSGMLDGGPVLGYIQKLLEDEKSAIFVTGYQVEGTNGRSLLETGTLTIAGVTVKPKMRVEFFDMSAHAGHDELVNFIKAIDPKKIVLCHGDHRENLLPDLEGYDVLLPYNGKEYEI” as the sequence, how does the “soluble on expression in E. coli” value read?
**A.** Its value is “not soluble”.

**Q.** Which “soluble on expression in E. coli” value does the source give for “SLAQTQLIQSEKMSSLGQLIAGVAHEINNPVNFIYGNLRYVAEYAQDLLHLLEKYQKFLPVTPPELESELDNIDLEFIIQDLPKLLDSMKLGTGRIVEIVQSLKNFSRHDEAEMKAVNIHDGIDGTLMILHHRLKAAIRRPKIEIVKDYAKLPLIECYPGKLNQVFMNILANAIDALEEGMGNEEIPPPTGQITIRTEVLDNQWVVIRIADNGPGMKEEVIRRIYDPFFTTKDVGKGTGLGMAISYQIVVDKHGGMLKCRSQPGEGTEFWIQIPVNCALADAAEEG” here?
**A.** The value was “not soluble”.

**Q.** Which “soluble on expression in E. coli” value does the source give for “MLMFDPVPVKQEAMDPVSVSYPSNYMESMKPNKYGVIYSTPLPEKFFQTPEGLSHGIQMEPVDLTVNKRSSPPSAGNSPSSLKFRSSHRRASPGLSMPSSSPPIKKYSPPSPGVQHFGVPLSMPPVMAAALSRHGIRSPGILPVIQPVVVQPVPFMYTSHLQQPLMVSLSEEMENSSSSMQVPVIESYEKPISQKKIKIEPGIEPQRTDYYPEEMSPPLMNSVSPPQALLQE” here?
**A.** Its value is “soluble”.

**Q.** With “MDFPCLWLGLLLPLVAALDFNYHRQEGMEAFLKTVAQNYSSVTHLHSIGKSVKGRNLWVLVVGRFPKEHRIGIPEFKYVANMHGDETVGRELLLHLIDYLVTSDGKDPEITNLINSTRIHIMPSMNPDGFEAVKKPDCYYSIGRENYNQYDLNRNFPDAFEYNNVSRQPETVAVMKWLKTETFVLSANLHGGALVASYPFDNGVQATGALYSRSLTPDDDVFQYLAHTYASRNPNMKKGDECKNKMNFPNGVTNGYSWYPLQGGMQDYNYIWAQCFEITLELSCCKYPREEKLPSFWNNNKASLIEYIKQVHLGVKGQVFDQNGNPLPNVIVEVQDRKHICPYRTNKYGEYYLLLLPGSYIINVTVPGHDPHITKVIIPEKSQNFSALKKDILLPFQGQLDSIPVSNPSCPMIPLYRNLPDHSAATKPSLFLFLVSLLHIFFK” as the sequence, how does the “soluble on expression in E. coli” value read?
**A.** The value was “soluble”.

**Q.** For “MKKIKLGFAPTRRSIFSAPDAVKYRGLTAQRLKELGVDFVDITDINEEGLLYDDKDVDKIVEKFKKEGVDGLMLPHCNFGTEYVCARLAKKLDVPVLLWGPLDERPEPNGVRLRDTQCGLFATGKVLRRFQIPFTYLTNCRLNDPVFERGVKDFLAVCNVVKTFKNIRILQISTRPFDFWTTMCNEGELLEKFNIQLAPVPMTELTEEVKTVREDKEKMEQMIAYIKDTMVIKIKEEEVEMVAALALAMKSLVEKYGCQAAAIQCWNALQTEIGIMPCAANAILNEQGIPVVCETDIHGAVTALLAEAAGMDEKRGFFADWTIRHPDIENGELLQHCGPWPMSVAQEKPELTYPLAFEHPGSLTAEAKHGEVTLCRFDGDNGEYSLLLGNAKGVDGPKGMGTYLWVEVENIKRLEAKIVEGPYIHHCVGIHKNVVPVLYEACKYIGVKPDLYDPIEEDVKAYLRGE”, which “soluble on expression in E. coli” value is on record?
**A.** Its value is “not soluble”.

**Q.** For “MSTNFEKHFQENVDECTLEQLRDILVNKSGKTVLANRFRALFNLKTVAEEFATKPEEAKKAIEYIAESFVNDKSELLKHEVAYVLGQTKNLDAAPTLRHVMLDQNQEPMVRHEAAEALGALGDKDSLDDLNKAAKEDPHVAVRETCELAINRINWTHGGAKDKENLQQSLYSSIDPAPPLPLEKDATIPELQALLNDPKQPLFQRYRAMFRLRDIGTDEAILALATGFSAESSLFKHEIAYVFGQIGSPAAVPSLIEVLGRKEEAPMVRHEAAEALGAIASPEVVDVLKSYLNDEVDVVRESCIVALDMYDYENSNELEYAPTAN”, which “soluble on expression in E. coli” value is on record?
**A.** Its value is “soluble”.

**Q.** With “MKVYLESFGCSASQASAEIMKASIGKLGHELLSPENAGQAEVYICNSCTVKYTTEQKILYKIRSMGEKGVQVIVSGCMPEVQLEDILHANPEAHILGVNAVSRLGDLLSTIEQRKKTGIPGGERLEIRTSEPQGFLNVPRERSNPNIHICQISQGCNFACSYCIVKHARGKLLSFPPEEIIEDIRSAVADGCREIWLTSQDDSQYGMDTGVKLPELLRAISEIPGDFKVRVGMMNPFSVLPILDDLVDAFDSDKIFKLLHLPIQSASHSVLKKMNRLHKMDSVDEIITKFRAHFEDLSLFTDIIVGFCDETDEDFEETIEWVKKYRPEKINISRYSPRPHTKAFSFRNLDSRISVKRSHQLHKVCEQIKIESKNEMIGWKGRVFVSKYTEIGDVLTRTDSYRPVVISGSDLRPGEYAEVKITGAKPGYFLGKLVSLEHHHHHH” as the sequence, how does the “soluble on expression in E. coli” value read?
**A.** The value was “soluble”.

**Q.** Which “soluble on expression in E. coli” value does the source give for “MGSDKIHHHHHHMFAGAPLSMLLAMPHRPYRDEADLTLLLRWLSDHAPTTFMHPGDLVWWLYQNTQVDPRQALELLFDGEAGGNELQGFGYCDGSWSVLQGLPDLPAHVWDEMVAAAATRAGGKLTVQPHEWDTPQLAALKRAGFELTDNRMVRLVREVQPCDQEAVALPAGFHFADMSGSEVSPEDRVKVHQDVWHPSKVTLEAYGRLQAAPLYRPDLDVMVVAPSGEIAAYALGWFDPGSRTGLMEPVGTRAAFRRQGLGKGLIREVTHRFAALGAQKVTIGSYEKNVAAVALYTSAGYAARGFWVDWETETAAMKEGQDSA” here?
**A.** The value was “not soluble”.
